In publication PMC3520712, “Arabidopsis mutant sk156 reveals complex regulation of SPL15 in a miR156-controlled gene network”:

Molecular target: T1, SPL15 SBP domain (His-tagged) (Arabidopsis thaliana, UniProt Q9M2Q6 50-139)
T1 sequence: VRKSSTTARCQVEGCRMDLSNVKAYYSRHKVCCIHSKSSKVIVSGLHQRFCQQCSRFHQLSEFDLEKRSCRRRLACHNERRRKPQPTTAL
Test: EMSA; ~500 ng protein, ~20 fmol DNA; displaced by 100-fold unlabeled N1; 10 mM Tris pH 7.5, 50 mM KCl, 5 mM MgCl (so in the source), 5 mM DTT, 2.5% glycerol, 0.05% NP-40, 25 C 30 min; 7.5% gel in 0.5x TBE at 4 C
Details: protein: recombinant; tags: His tag (pET28a, BamHI/SalI; 16.3 kD fusion); label: digoxigenin (DIG Gel Shift kit); blunt

B1: miR156b promoter 46-mer (R156b-bx1) (dsDNA)
DNA 1: TAATTAGTGAAACTGTACAATGTACAATGTACCAATGCCATTAATG
DNA 2: CATTAATGGCATTGGTACATTGTACATTGTACAGTTTCACTAATTA
- binding result: binds
